Experimental data as given in patent US20230322924A1 (Janssen / Centocor, published 2023).
Where a chain is given by its changes, count along the chain named. Names may count otherwise.

B1: C33B72 (antibody, IgG1, V domains shown)
VH: QVQLVESGGGVVQPGRSLRLSCAASGFTFSSYGMHWVRQAPGKGLEWVVVISYDGSNKYYADSVKGRFTISRDNSKNTLYLQMNSLRAEDTAVYYCAKDFRDFDWLPPDSTSYHGMDVWGQGTTVTVSS
VL: SYELTQPPSVSVSPGQTASITCSGDKLGDKYACWYQQKPGQSPVVVIYQDRKRPSGIPERFSGSNFGNTATLTISGTQAMDEADYYCQAWDSSTVVFGGGTKLTVL
notes: huIgG1 F405L; also called C33F77; C33H65/C33L47
B2: C33B63 (antibody, IgG1, V domains shown)
VH: QLQLQESGPGLVKPSETLSLTCTVSGGSISTGRYYWGWIRQPPGKGVIWIGNIYYSGNTYYNPSLKSRVTISVDTSKNQFSLKLNSVTAADTAVYYCARLGSLVVVPAAMSFDYWGQGTLVTVSS
VL: B1 VL with Q37L, K38R, V44I, V45L, R51S, K52N, F66S, V95W
notes: huIgG1 F405L; also called C33F68; C33H51/C33L34
B3: C33B52 (antibody, IgG1, V domains shown)
VH: QLQLQESGPGLVNPSETLSHTCTVSGGSISSSSHYWGWIRQPPGKGLEWIGKIYYSGNTYYNPSLKSRVTISIDTSKNQFSLKMSSVTAADTAVYYCARLADVVVVPAARYFDSWGQGTLVTVSS
VL: B1 VL with T21I, D29N, V45L, R51S, F66S, M80V, V95Y, G99T, L103V
notes: huIgG1 F405L; also called C33F57; C33H42/C33L8
B4: C33B125 (antibody, IgG1, V domains shown)
VH: B1 VH with V49A, D102S, H114Y
VL: B1 VL with A32V, Y48H
notes: huIgG1 F405L; also called C33F130; C33H84/C33L66
B5: C33B82 (antibody, IgG1, V domains shown)
VH: B1 VH with V49A, Y80F, D102Y, T111S, H114Y
VL: B1 VL with K26E, D29N, I47V
notes: huIgG1 F405L; also called C33F87; C33H78/C33L57
B6: C33B79 (antibody, IgG1, V domains shown)
VH: B1 VH with G26R, V49A, Y94H, D102S, T111A
VL: B1 VL with S13P, V45L, R51N, F66S, D91G, S92R, S93N
notes: huIgG1 F405L; also called C33F84; C33H74/C33L38
B7: C33B55 (antibody, IgG1, V domains shown)
VH: B1 VH with A40S, V49A, Y60C, N77S, D102S, F103L, H114D
VL: B1 VL with D25H, Q49K, R51S
notes: huIgG1 F405L; also called C33F60; C33H45/C33L11
B8: C33B83 (antibody, V domains shown)
VH: B1 VH with S31A, V49A, D90G, D102S, T111A
VL: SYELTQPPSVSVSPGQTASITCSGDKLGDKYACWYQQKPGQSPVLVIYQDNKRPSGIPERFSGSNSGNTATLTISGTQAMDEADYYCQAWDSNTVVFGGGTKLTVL
notes: huIgG1 F405L; also called C33F88; C33H81/C33L53
B9: C33B73 (antibody, IgG1, V domains shown)
VH: B1 VH with A23V, V49A, D90G, D102S, T111A
VL: B1 VL with V45L, R51G, T69K, S92R, S93N
notes: huIgG1 F405L; also called C33F78; C33H66/C33L60

What follows are binders tested against T1, Human CD33 full length, expressed on HEK293F cells (human, UniProt P20138 18-364) (assay: flow cytometry, HEK293F cells expressing human CD33).
T1 construct: HEK293F cells transduced with lentivirus containing full length human CD33; also called huCD33
T1 sequence (P20138 18-364 limits assumed): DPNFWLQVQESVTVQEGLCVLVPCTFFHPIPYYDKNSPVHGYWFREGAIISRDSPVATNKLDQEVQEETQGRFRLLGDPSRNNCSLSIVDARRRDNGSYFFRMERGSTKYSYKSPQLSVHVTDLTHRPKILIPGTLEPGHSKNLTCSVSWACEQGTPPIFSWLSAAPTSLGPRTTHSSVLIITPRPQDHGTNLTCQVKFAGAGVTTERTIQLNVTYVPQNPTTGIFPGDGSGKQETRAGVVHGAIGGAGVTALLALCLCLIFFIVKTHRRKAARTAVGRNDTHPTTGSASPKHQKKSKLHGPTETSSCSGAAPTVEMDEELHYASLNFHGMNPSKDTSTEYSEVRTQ
Experimental: (§1) OMNIRat antibodies identified via immunization, v-region cloned and subsequently expressed and purified were characterized further for binding to CD33 expressing cells and binding to recombinant antigens. The purified antibodies were assessed for binding to stably transfected HEK293F cells expressing human CD33 or cyno CD33 (generation described above) along with the parental HEK293F as negative control. Cells were harvested from tissue culture flasks using non-enzymatic dissociation buffer (Thermo Scientific). The flasks were rinsed twice with PBS and dissociation buffer was added to the flask, and the flask was incubated for 10 minutes at 37° C. until the cells became non-adherent. The cells were centrifuged at 300 g for 5 minutes and resuspended at 1.0×10⁶ cells/ml in staining buffer (Becton Dickinson; Franklin Lakes, NJ). 50,000 cells/well of each cell type was plated in 50 μl of staining buffer in round bottom plates (Becton Dickinson). […] 100 μl staining buffer was added to all wells of each plate, the plates were spun at 300 g for 5 min, the buffer was removed, 200 μl staining buffer was added to all wells of each plate, the plates were spun at 300 g for 5 min, and the buffer was removed. 50 μl of 2 μg/ml of Goat-anti-human Fc AF647 secondary antibody (Jackson Immunoresearch; West Grove, PA) was added to all wells of the plates, and the plates were incubated for 30 min at 4° C. 100 μl staining buffer was added to all wells of the plates, the plates were spun at 300 g for 5 min, and the buffer was removed. 200 μl running buffer (running buffer is Staining buffer, 1 mM EDTA, 0.1% Pluronic Acid) was added to all wells of the plates, the plates were spun at 300 g for 5 min, and the buffer was removed. 30 μl running buffer containing Sytox Green live/dead dye (ThermoFisher) was added to all wells with cells and the plates were read on an iQue IntelliCyt flow cytometer. Cells were gated on forward vs. side scatter to eliminate debris, then on singlets and then on live cells which excluded the Sytox stain. Antibody binding was assessed by the mean fluorescence intensity in the AF647 channel.

MFI at 0 nM mAb (background) [MFI]	MFI at 0.6 nM mAb [MFI]	MFI at 6 nM mAb [MFI]	MFI at 60 nM mAb [MFI]	Binder
93.3	12500	105000	328000	B1
86.3	9670	62200	248000	B2
82.5	6750	46300	197000	B3
78.3	9200	79700	259000	B4
73.4	5030	41300	189000	B5
77.8	4990	41900	237000	B6
105	7630	59200	188000	B7
87.4	1020	7860	93000	B8
94	4030	33400	201000	B9

The binders below were run against Human CD33 ECD-HSA (human) (assay: ProteOn SPR, mAb captured by anti-human Fc, 1:1 Langmuir fit).
Sequence of Human CD33 ECD-HSA (human) (chain, as listed by the source): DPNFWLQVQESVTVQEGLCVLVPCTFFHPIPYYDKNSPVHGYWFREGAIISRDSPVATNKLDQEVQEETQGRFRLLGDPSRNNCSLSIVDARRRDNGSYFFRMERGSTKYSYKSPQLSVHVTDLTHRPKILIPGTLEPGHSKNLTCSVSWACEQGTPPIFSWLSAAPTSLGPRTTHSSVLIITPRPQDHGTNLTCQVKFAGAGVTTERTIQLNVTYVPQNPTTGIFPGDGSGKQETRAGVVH
Experimental: (§2) The panel of mAbs was then further characterized for full affinity analysis as well as epitope binning. The binding of anti-CD33 mAbs to recombinant human CD33 ECD-HSA (C33W2) and cyno CD33 ECD-HSA (C33W1) was measured by ProteOn SPR (Bio-Rad). […] Different mAbs were captured on the anti-human Fc IgG surface at 0.25 or 0.5 μg/ml (160-300 RU) in vertical ligand orientation, with the 6th ligand channel as no ligand surface control. Human and cyno CD33-HSA proteins at 0.3 μM concentration in 3-fold dilution series of 5 concentrations flew in as analyte to bind to captured mAbs in the horizontal orientation. A buffer sample was also injected in the 6th channel to monitor the dissociation of captured mAb and baseline stability. […] The raw biding data were processed by double referencing after subtracting the response data from: 1) the inter-spot to correct for the non-specific interactions between the Ag and the empty chip surface; 2) the buffer channel to correct for baseline drifting due to the dissociation of captured mAb surface over time. The processed data at all antigen concentrations for each mAb were globally fit to a 1:1 simple Langmuir binding model to extract estimates of the kinetic (kₒₙ, koff) and affinity (Kd) constants.

Kd [nM]	koff [s⁻¹]	kon [M⁻¹ s⁻¹]	Binder
0.23	0.0002	871000	B1
7.01	0.00374	533000	B2
19.2	0.00396	206000	B3
0.14	0.000134	992000	B4
0.61	0.00027	445000	B5
0.76	0.00039	515000	B6
0.26	0.000253	985000	B7
1.93	0.000521	270000	B8
0.1	5.59e-05	559000	B9

These binders were tested against T2, Cyno CD33 ECD-HSA (cynomolgus monkey) in the same assay as above.
T2 construct: Cyno CD33 extracellular domain fused to monomeric human serum albumin and a six-histidine tag; also called C33W1
Experimental: as §2

Kd [nM]	koff [s⁻¹]	kon [M⁻¹ s⁻¹]	Binder
0.587	0.00054	919000	B1
1.22	0.00088	723000	B2
4.74	0.00148	313000	B3
0.304	0.000339	1.12e+06	B4
1.38	0.000751	545000	B5
4.01	0.0022	548000	B6
0.0723	8.37e-05	1.16e+06	B7
11.7	0.00288	247000	B8
0.846	0.000508	600000	B9

What follows are binders tested against Human CD33 ECD-HSA (human) (assay: SPRi off-rate screen (IBIS MX96), mAb captured by anti-human Fc; column head prints KD).
Experimental: (§3) To begin assessing the biophysical binding properties of the purified mAbs an off-rate screen was performed. 76 OMNIRat anti-CD33 mAbs were tested for binding to recombinant human CD33 ECD-HSA (C33W2) and cyno CD33 ECD-HSA (C33W1) proteins (Janssen production) and the off-rate was measured by IBIS MX96 SPRi array platform (Carterra; Newton, PA). […] The sensor chip was transferred to the Continuous Flow Microspotter (CFM) unit to capture each anti-CD33 mAb at 10 μg/ml for 10 minutes. Binding was measured on IBIS SPRi by single cycle kinetics without regeneration. […] The raw binding data (.trix file format) were referenced and aligned using SprintX software (Wasatch, Ver 1.9.3.2), then exported (.ibmx file format) to Scrubber software (Ver. 2.0) for 1:1 binding kinetic analyses (Wasatch, version 2.0.0.33) to extract the koff results.

koff [s⁻¹]	Binder
0.000284	B1
0.00457	B2
0.00313	B3
0.000154	B4
0.000341	B5
0.000328	B6
0.000215	B7
0.000461	B8
9.12e-05	B9

Each binder was assayed against T3, Cyno CD33 full length, expressed on HEK293F cells (cynomolgus monkey) (assay: flow cytometry, HEK293F cells expressing cyno CD33).
T3 construct: HEK293F cells transduced with lentivirus containing full length cyno CD33 (Genbank XP_005590138.1); also called cyCD33
Experimental: as §1

MFI at 0 nM mAb (background) [MFI]	MFI at 0.6 nM mAb [MFI]	MFI at 6 nM mAb [MFI]	MFI at 60 nM mAb [MFI]	Binder
90.8	3890	14000	19400	B1
87.9	2880	11600	18300	B2
75.2	2060	8440	12600	B3
70.2	3460	11500	15600	B4
84.2	1540	6620	14300	B5
63.6	1080	6430	15500	B6
69.4	2430	9990	16000	B7
87.3	159	687	5300	B8
72.5	796	6990	14800	B9

What follows are binders tested against T2, Cyno CD33 ECD-HSA (assay: SPRi off-rate screen (IBIS MX96), mAb captured by anti-human Fc; column head prints Cyno CD33 binding KD).
Experimental: as §3

koff [s⁻¹]	Binder
0.000763	B1
0.000947	B2
0.0012	B3
0.000351	B4
0.00067	B5
0.00682	B6
0.000116	B7
0.00217	B8
0.000408	B9
